Measurements reported in US9383360B2, “Compositions and methods relating to lyme disease” (The United States of America, as represented by the …, priority 2012, dated 2016).

Legend:
[1] = tested on: Aggrecan; experiment: BbHtrA proteolysis assay, aggrecan substrate; assay type: biochemical, bovine, human; conditions: SDS-PAGE, silver stain, FIG. 4A
Method: For proteolysis assays described in Examples herein, purified protein substrates (200-600 nM) and proteases (100-150 nM) were diluted in assay buffer (50 mM HEPES, pH 7.4, 5 mM CaCl2) and incubated overnight at 37° C. Samples were boiled for 4 minutes to inactivate the proteases. Proteoglycans were deglycosylated by overnight incubation at 37° C. with 0.01 U chondroitinase ABC (Seikagaku). Reactions were stopped by the addition of SDS/PAGE sample buffer, boiled for 4 minutes, and electrophoresed on pre-cast Tris-glycine gels (BioRad). Reaction products were visualized by silver staining.
BbHtrA cleaved recombinant human aggrecan (G1-IGD-G2 domains) within the IGD (FIG. 4A). Cleavage of recombinant aggrecan generated three high molecular weight proteolytic fragments which migrated at ˜110 kd, ˜60 kd and ˜50 kd.
BbHtrA also degraded native, fully glycosylated aggrecan (FIG. 4B, lane 5). Again, this degradation required BbHtrA catalytic activity (FIG. 4B, lane 6). The BbHtrA-generated aggrecan fragments appear to be a doublet, unlike those generated by HtrA1.
Purified proteins were incubated with BbHtrA or BbHtrA^S226A as described herein. HtrA (also known as DegP) proteases belong to the family of serine proteases which contain a highly reactive serine residue in their active site. This serine (Ser210 in DegP) is part of the canonical His-Ser-Asp catalytic triad and mutation of the catalytic serine abolishes proteolytic activity (Skorko-Glonek et al., 1995). In BbHtrA, residues His119, Ser226 and Asp149 form the catalytic triad and mutation of serine 226 to alanine abolished proteolytic activity as expected (FIG. 5).
Reaction products were separated by SDS-PAGE and silver stained. Native collagen II and recombinant tenascin C were not degraded by BbHtrA indicating selectivity for proteoglycans, E-cadherin and fibronectin. FIG. 5 is an image of SDS-PAGE analysis showing that BbHtrA degrades aggrecan, neurocan, versican, brevican, biglycan, decorin, E-cadherin, and casein.

[2] = tested on: chondrocyte aggregate cultures; experiment: Chondrocyte cytokine induction assay (Proteome Profiler Cytokine Arrays); assay type: cell-based, human
Description: Chondrocyte aggregate cultures are used which form an extensive extracellular matrix with components characteristic of articular cartilage including aggrecan and type II collagen as described in Welter, J. et al, BioTechniques, 2007, 42(6):732-737; and Solchaga, L. A. et al., Chondrogenic Differentiation of Bone Marrow-Derived Mesenchymal Stem Cells: Tips and Tricks, 2011, 698:253-278.
To form the chondrocyte aggregate cultures, lx10^6 human mesenchymal stem cells (passage one, Lonza, catalog #PT-2501) were plated in a T150 flask (Corning) and cultured in growth media: mesenchymal stem cell basal media (MSCBM, Lonza, #PT-3238), mesenchymal growth supplements (SingleQuots, Lonza, #PT-4105), and 5 ng/ml recombinant human […] (Shenandoah Biotechnology). When confluent, cells were trypsin-released (0.5% trypsin EDTA, Gibco), expanded to two T150 flasks and fed with growth media every three days. When confluent, cells were harvested, resuspended in fresh growth media containing 5% DMSO and aliquots of 1×10^6 cells were cryopreserved in liquid nitrogen.
Human mesenchymal stem cells were used to promote chondrogenesis and chondrocyte aggregate formation for use in these studies. Two vials of passage three cryopreserved cells were thawed, plated in growth media in two T150 flasks and then expanded to six T150 flasks as above. Cells were harvested (0.5% trypsin EDTA, Gibco), pooled, enumerated and induced to chondrogenic differentiation as follows. Cells were resuspended in defined chondrocyte differentiation media: high glucose DMEM (Gibco), 50 μg/ml ascorbic acid-2-phosphate (Sigma), 39.3 ng/ml dexamethasone (Sigma), […] L-proline (Sigma), ITS+Premix (BD Biosciences), 10 ng/ml transforming growth factor β-3 (Shenandoah Biotechnology) and 30 μg/ml gentamicin sulfate+15 ng/ml amphotericin-B (GA-1000, Lonza, #PT-4504E). High density aggregates were obtained by plating, on average, 3×10^5 cells per well in a conical bottom 96 well plate (Thermo Scientific), pelleting by centrifugation (5 minutes at 600 g), and incubation at 37° C. and 5% CO2. Pellets formed coherent spherical aggregates by day two of culture. After seven days, wide bore tips were used to transfer aggregates to V-bottom 96 well plates (Corning). Aggregates were maintained in differentiation media at 37° C. and 5% CO2 for 3-5 weeks and fed every two days until experimentation.
For chondrocyte cytokine induction assays, 24 hours prior to experimentation, dexamethasone containing media was removed, aggregates were rinsed with DPBS (Gibco) and dexamethasone-free differentiation media was added. For experimentation, aggregates were transferred to 24 well plates (24 aggregates per condition), spent media was removed and fresh warmed dexamethasone-free media containing samples was added. Aggregates were then incubated at 37° C. and 5% CO2 for two days.
Recombinant BbHtrA or BbHtrA^S226A was added to culture medium and incubated with chondrocyte aggregate cultures. BbHtrA and BbHtrA^S226A were purified using an E. coli system and was expected to contain endotoxin which would have a stimulatory effect on the chondrocytes. To control for endotoxin contamination (lipopolysaccharide, LPS), an endotoxin removal kit (Noragen) was used to remove the bulk of LPS from recombinant BbHtrAs. The relative toxicity of the amount remaining in the BbHtrA and BbHtrA^S226A samples was determined by a chromogenic Limulus Amoebocyte Lysate (LAL) method (Lonza, Walkersville, Md.). Prior to addition to aggregates, LPS (44 ng, 200 EU), BbHtrA^WT (20 μg, 27.9 EU LPS) and BbHtrA^S226A ([…], 1.99 EU LPS) were incubated in 1 mg/ml polymyxin B sulfate (Sigma) on ice for 30 min with occasional mixing. Warmed dexamethasone-free medium was then added to each test condition to a final volume of 1 ml. Control aggregates were maintained in untreated medium also containing polymyxin B sulfate. The final concentration for all test conditions was 60 μg/ml polymyxin B sulfate. […]

[3] = spent medium of chondrocyte aggregates after 48 hours, cytokine array, background subtracted

B1: BbHtrA^S226A (protein)
chain: MEKKFFSGFLLSFLALSIGFFIGMHYLASNRSNIVFAEEKDNTVRALQDSFREVSKKILPSSVEVHATGVIKQSFPIPFFFFDMPEFDSERKSNWAGSGVIIGRDSQKKSLFYVVTNSHVVDKATELEVVSYDKKKHKAKLIGKDEKKDIALISFESDDATIKVADLGDSDKLEIGDWVMAVGSPFQFSFTVTAGIVSGLQRSANPNLQSRNLFIQTDAAINRGNAGGPLVNIKGEVIGINAWIASNSGGNIGLGFAIPVNNIKSTVDFFLKGKKIESAWLGISFYPLKTRDSEVLKSLGVESNDVSAAIIASLYPGSPAVKSGLRAGDIIMKVNGVSMSVFQDVTSYISDFYAGEKVNVEILRGNVKKNIEIVLAVRPKDKELSSSKMLPGFVVYPLVEDIKAQLNLRNWIKGVVVDYIDKNLASNIKMKSGDVILSVNSKSVSNLREFYDALEVGKNTYKILRGNDSFKITF
modifications: Mutant Borrelia burdorferi HtrA S226A
- Cleavage of recombinant human aggrecan (G1-IGD-G2 domains) within the IGD [1]: failed to generate these fragments
- Cytokines released by chondrocytes in response ([2]; additional experiments, FIG. 10: BbHtrA^WT, BbHtrA^S226A, LPS, medium alone): IL-8 and CXCL1
- GROα/CXCL1 pixel density, Mean [2, 3]: 0.647
- I-309/CCL1 pixel density, Mean [2, 3]: 0.163
- IL-6 pixel density, Mean [2, 3]: 0.309
- IL-8 pixel density, Mean [2, 3]: 1.187
- MCP-1/CCL2 pixel density, Mean [2, 3]: 0.050
- RANTES/CCL5 pixel density, Mean [2, 3]: 0.265
- sICAM-1/CD54 pixel density, Mean [2, 3]: 0.257
